In article PMC9352726 (Nature Communications, 2022) one finds Kd data, which are given here for one molecule.

Assay [1] addresses T1, purified recombinant YspE1, full length (Yersinia pestis, UniProt A0A3N4BII9 1-626).
T1 sequence: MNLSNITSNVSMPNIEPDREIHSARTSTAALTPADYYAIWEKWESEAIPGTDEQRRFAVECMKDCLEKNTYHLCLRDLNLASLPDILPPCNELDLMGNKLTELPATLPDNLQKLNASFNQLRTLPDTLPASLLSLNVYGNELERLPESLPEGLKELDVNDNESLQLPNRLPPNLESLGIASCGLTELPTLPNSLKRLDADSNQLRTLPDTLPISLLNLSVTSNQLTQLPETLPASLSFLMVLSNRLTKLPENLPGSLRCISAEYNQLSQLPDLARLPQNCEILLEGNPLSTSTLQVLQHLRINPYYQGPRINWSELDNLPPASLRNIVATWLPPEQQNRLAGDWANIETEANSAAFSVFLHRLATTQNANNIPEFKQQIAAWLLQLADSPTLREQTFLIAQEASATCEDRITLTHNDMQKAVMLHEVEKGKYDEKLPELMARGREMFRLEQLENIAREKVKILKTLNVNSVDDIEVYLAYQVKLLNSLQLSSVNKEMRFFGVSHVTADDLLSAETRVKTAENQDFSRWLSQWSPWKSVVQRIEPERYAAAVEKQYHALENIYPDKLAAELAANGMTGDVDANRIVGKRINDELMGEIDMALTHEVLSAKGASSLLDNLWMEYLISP
Nature of the assay: SPR; Biacore T200; […] (0–20 μM) […] (20 mM HEPES pH 7.4, 150 mM NaCl, 3.4 mM EDTA, 0.005% P20); 25 °C. The note with it: both partners purified. On the technique in general: In SPR one partner is held on a chip, and binding of the other changes the refractive index at the surface.

The target of assay [2] is T2, purified recombinant YspE2, full length (Yersinia pestis, UniProt A0AAP0VE47 1-605).
T2 sequence: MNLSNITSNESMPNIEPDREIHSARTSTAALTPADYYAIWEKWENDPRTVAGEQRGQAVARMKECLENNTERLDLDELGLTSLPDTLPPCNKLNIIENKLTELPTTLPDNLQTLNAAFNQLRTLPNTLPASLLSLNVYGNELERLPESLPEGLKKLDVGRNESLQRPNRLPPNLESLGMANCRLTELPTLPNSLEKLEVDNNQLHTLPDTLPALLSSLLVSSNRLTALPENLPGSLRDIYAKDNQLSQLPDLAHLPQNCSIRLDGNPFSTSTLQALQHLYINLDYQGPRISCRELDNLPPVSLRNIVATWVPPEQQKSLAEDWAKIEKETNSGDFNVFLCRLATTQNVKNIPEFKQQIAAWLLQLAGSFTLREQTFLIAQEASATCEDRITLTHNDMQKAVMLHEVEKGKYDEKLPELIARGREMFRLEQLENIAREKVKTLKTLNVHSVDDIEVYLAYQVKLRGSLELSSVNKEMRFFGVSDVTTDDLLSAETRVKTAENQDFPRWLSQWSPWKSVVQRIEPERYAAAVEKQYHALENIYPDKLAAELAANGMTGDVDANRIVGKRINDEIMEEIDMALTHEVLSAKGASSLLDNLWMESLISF
The assay is described as above. The note with it: both partners purified.

B1: purified recombinant human guanylate-binding protein 1 (hGBP1) (natural protein, UniProt P32455 1-592, looked up)
chain: MASEIHMTGPMCLIENTNGRLMANPEALKILSAITQPMVVVAIVGLYRTGKSYLMNKLAGKKKGFSLGSTVQSHTKGIWMWCVPHPKKPGHILVLLDTEGLGDVEKGDNQNDSWIFALAVLLSSTFVYNSIGTINQQAMDQLYYVTELTHRIRSKSSPDENENEVEDSADFVSFFPDFVWTLRDFSLDLEADGQPLTPDEYLTYSLKLKKGTSQKDETFNLPRLCIRKFFPKKKCFVFDRPVHRRKLAQLEKLQDEELDPEFVQQVADFCSYIFSNSKTKTLSGGIQVNGPRLESLVLTYVNAISSGDLPCMENAVLALAQIENSAAVQKAIAHYEQQMGQKVQLPTETLQELLDLHRDSEREAIEVFIRSSFKDVDHLFQKELAAQLEKKRDDFCKQNQEASSDRCSALLQVIFSPLEEEVKAGIYSKPGGYRLFVQKLQDLKKKYYEEPRKGIQAEEILQTYLKSKESMTDAILQTDQTLTEKEKEIEVERVKAESAQASAKMLQEMQRKNEQMMEQKERSYQEHLKQLTEKMENDRVQLLKEQERTLALKLQEQEQLLKEGFQKESRIMKNEIQDLQTKMRRRKACTIS
notes: also called pSUMO-hGBP1
In general, Kd refers to the free concentration of one partner at which half of the binding sites on the other are occupied at equilibrium, for simple one-to-one binding. With B1, the values for the Kd in assay [1] and in assay [2] were 0.37 µM and 1.5 µM, respectively.
